{
  "source": "patent US6566505",
  "about": "(THOMAS JEFFERSON UNIVERSITY, dated 2003)",
  "binders": {"B1": {"name": "purified recombinant human CPP32 (protein)", "chain": "SGISLDNSYKMDYPEMGLCIIINNKNFHKSTGMTSRSGTDVDAANLRETFRNLKYEVRNKNDLTREEIVELMRDVSKEDHSKRSSFVCVLLSHGEEGIIFGTNGPVDLKKITNFFRGDRCRSLTGKPKLFIIQACRGTELDCGIETDSGVDDDMACHKIPVEADFLYAYSTAPGYYSWRNSKDGSWFIQSLCAMLKQYADKLEFMHILTRVNRKVATEFESFSFDATFHAKKQIPCIVSMLTKELYFYH"}, "B2": {"name": "bacterially expressed recombinant Mch6 (6His-C terminal tagged protein) (protein)", "chain": "MDEADRRLLRRCRLRLVEELQVDQLWDALLSSELFRPHMIEDIQRAGSGSRRDQARQLIIDLETRGSQALPLFISCLEDTGQDMLASFLRTNRQAAKLSKPTLENLTPVVLRPEIRKPEVLRPETPRPVDIGSGGFGDVGALESLRGNADLAYILSMEPCGHCLIINNVNFCRESGLRTRTGSNIDCEKLRRRFSSPHFMVEVKGDLTAKKMVLALLELAQQDHGALDCCVVVILSHGCQASHLQFPGAVYGTDGCPVSVEKIVNIFNGTSCPSLGGKPKLFFIQACGGEQKDHGFEVASTSPEDESPGSNPEPDATPFQEGLRTFDQLDAISSLPTPSDIFVSYSTFPGFVSWRDPKSGSWYVETLDDIFEQWAHSEDLQSLLLRVANAVSVKGIYKQMPGCFNFLRKKLFFKTS"}, "B3": {"name": "DEVD-CHO (Asp-Glu-Val-Asp-aldehyde) (peptide)", "peptide": "DEVD-aldehyde", "notes": "Tetrapeptide aldehyde substrate analog; also called DEVD-CHO peptide"}},
  "key": {"[1]": {"target": "T1, wild type proMch6 (35S-labeled, in vitro translated)", "T1 chain": "B2 chain"}, "[2]": {"target": "T2, ZEVD-AMC (carbobenzoxy-Glu-Val-Asp-aminomethylcoumarin)", "T2 chain": "EVD"}, "[3]": {"target": "T3, DEVD-AMC (Asp-Glu-Val-Asp-aminomethylcoumarin)", "T3 chain": "DEVD"}, "[4]": {"target": "T4, YVAD-AMC (Tyr-Val-Ala-Asp-aminomethylcoumarin)", "T4 chain": "YVAD"}, "[5]": {"target": "T5, bacterially expressed recombinant Mch6 (6His-C terminal tagged protein) (human, UniProt P55211 1-416)", "T5 construct": "also called purified Mch6 protein; mammalian ced-3 homolog 6; not shown: C-terminal 6His tag from vector pET21b", "T5 chain": "B2 chain", "experiment": "inhibition of the hydrolysis of 50 µM DEVD-AMC by recombinant Mch6 after 30 min preincubation with DEVD-CHO, continuous fluorometric assay"}},
  "note": "Ends that are not written are not given here.",
  "data": [
    {"binder": "B1", "values": [
      {"measurement": "processing of 35S-labeled proMch6 (Tricine-SDS-PAGE and autoradiography)", "setting": "[1]", "value": "CPP32 cleaves proMch6 at one site to generate two cleavage products of approximately 37 kDa or p37 and approximately 10 kDa or p10"}
    ]},
    {"binder": "B2", "values": [
      {"measurement": "Vmax/Km (ZEVD-AMC)", "setting": "[2]", "value": 2.7},
      {"measurement": "Km (DEVD-AMC)", "setting": "[3]", "value": 10, "unit": "µM"},
      {"measurement": "Vmax/Km (DEVD-AMC)", "setting": "[3]", "value": 100},
      {"measurement": "Vmax/Km (YVAD-AMC)", "setting": "[4]", "value": "< 0.1"}
    ]},
    {"binder": "B3", "values": [
      {"measurement": "Ki", "setting": "[5]", "value": "< 10", "unit": "nM"}
    ]}
  ]
}
